This is an account of results in US5700659.

Assay [1] addresses scrambled ribonuclease A from bovine pancreas (bovine) (UniProt P61823).
Assay [2] addresses scrambled egg lysozyme (Gallus gallus (Chicken)) (UniProt P00698).

UniProt P61823, sequence (P61823 27-150 limits assumed): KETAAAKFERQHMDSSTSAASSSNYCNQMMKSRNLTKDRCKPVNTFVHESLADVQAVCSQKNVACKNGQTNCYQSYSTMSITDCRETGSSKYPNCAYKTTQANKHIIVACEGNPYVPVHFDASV

B1: polypeptide possessing protein disulfide isomerase (PDI) activity from Humicola insolens KASI (FERM BP-4239), purified from fungal cells (Example 2) (enzyme)
chain: SDVVQLKKDTFDDFIKTNDLVLAEFFAPWCGHCKALAPEYEEAATTLKEKNIKLAKVDCTEETDLCQQHGVEGYPTLKVFRGLDNVSPYKGQRKAAAITSYMIKQSLPAVSEVTKDNLEEFKKADKAVLVAYVDASDKASSEVFTQVAEKLRDNYPFGSSSDAALAEAEGVKAPAIVLYKDFDEGKAVFSEKFEVEAIEKFAKTGATPLIGEIGPETYSDYMSAGIPLAYIFAETAEERKELSDKLKPIAEAQRGVINFGTIDAKAFGAHAGNLNLKTDKFPAFAIQEVAKNQKFPFDQEKEITFEAIKAFVDDFVAGKIEPSIKSEPIPEKQEGPVTVVVAKNYNEIVLDDTKDVLIEFYAPWCGHCKALAPKYEELGALYAKSEFKDRVVIAKVDATANDVPDEIQGFPTIKLYPAGAKGQPVTYSGSRTVEDLIKFIAENGKYKAAISEDAEETSSATETTTETATKSEEAAKETATEHDEL
Regarding B1, in assay [1], the Refolding Ratio of Sc-RNase (%) was 80%. This molecule displayed a reactivation of Sc-lysozyme (lysozyme activity on ethylene glycol chitin, absorbance at 420 nm) in assay [2] of 12%.

B2: recombinant polypeptide possessing PDI activity from E. coli JM105/pTrc99APDI (Example 8) (enzyme)
chain: SDVVQLKKDTFDDFIKTNDLVLAEFFAPWCGHCKALAPEYEEAATTLKEKNIKLAKVDCTEETDLCQQHGVEGYPTLKVFRGLDNVSPYKGQRKAAAITSYMIKQSLPAVSEVTKDNLEEFKKADKAVLVAYVDASDKASSEVFTQVAEKLRDNYPFGSSSDAALAEAEGVKAPAIVLYKDFDEGKAVFSEKFEVEAIEKFAKTGATPLIGEIGPETYSDYMSAGIPLAYIFAETAEERKELSDKLKPIAEAQRGVINFGTIDAKAFGAHAGNLNLKTDKFPAFAIQEVAKNQKFPFDQEKEITFEAIKAFVDDFVAGKIEPSIKSEPIPEKQEGPVTVVVAKNYNEIVLDDTKDVLIEFYAPWCGHCKALAPKYEELGALYAKSEFKDRVVIAKVDATANDVPDEIQGFPTIKLYPAGAKGQPVTYSGSRTVEDLIKFIAENGKYKAAISEDAEETSSATETTTETATKSEEAAKETATEHDEL
Consider B2, for which the Refolding Ratio of Sc-RNase (%) in assay [1] worked out at 82%.
